From patent US12415833B2, “Method for activating helper T cell” (International Institute of Cancer Immunology, Inc., priority 2010, dated 2025)
No end group written: not given here.

Experiments:
Experiment in all cases: Folding test of HLA class II monomer protein with peptide using HPLC
Format in all cases: binding
Conditions in all cases: 50-fold molar peptide, 37° C. overnight, compared with control (solvent only), folding criterion not less than 0.1 minute
[1] = target: HLA class II monomer protein DRB1*0803 (Homo sapiens, UniProt P01903+P01911, A100R/A103L/A169T/D86S/F76Y/H45Y/K41T/L162R/M171V/P40S/Q125H/Q178H/Q39Y/Q99D/R218S/R42G/S66Y/V115G/W38E)
Method: (§1) Next, in order to evaluate a binding ability of WT1-332 with MHC class II molecules, a folding test of 7 types of HLA class II monomer proteins (DRB1*1501, 0101, 0405, 0803, 0901, 1502, or DRB4*0101) with WT1-332 was carried out using HPLC. Briefly, a folding reaction solution was prepared by mixing an HLA class II monomer protein, a peptide [a peptide binding to each protein (positive control), a peptide not binding to each protein (negative control), and WT1-332], and a folding buffer. After reacting the solution at 37° C., the retention time was analyzed using HPLC. The folding with WT1-332 was evaluated by utilizing a shift of the retention time due to the binding of an HLA class II monomer protein with a peptide.
(§2) HLA class II monomer proteins which had been freeze-preserved at −80° C. were thawed on ice. The HLA class II monomer proteins thawed were adjusted using a dilution buffer so that they were contained in an amount of 0.05 mg (1×10−^9 mol) in 83 μL.
(§3) About 1 mg of each peptide was weighed by an electronic balance, transferred to a glass vial, and dissolved in DMSO to give a concentration of 20 mg/mL.
(§4) The amount of a peptide which is a 50-fold molar amount relative to an HLA class II monomer protein was calculated using the following calculation formula. Amount of peptide required: 1×10^−9 mol×50=5×10^−8 mol (amount of peptide required) […]×(Molecular weight of peptide)×1,000=(amount of peptide required)(mg) (Amount of peptide required)/[purity of peptide/100]=(amount of peptide added)(mg) [(Amount of peptide added)/20 mg/mL]×1,000=(amount of peptide solution added)(μL) Calculation of Amount of Folding Buffer Added
(§5) As a folding buffer, a 10% amount of a mixed solution of an HLA class II monomer protein and a peptide was added. The amount of the folding buffer added was calculated using the following calculation equation. [83 μL (Amount of HLA class II monomer protein)+(amount of peptide solution in 50-fold molar amount)]×0.1=amount of folding buffer added Analysis of Folding Using HPLC
(§6) To a glass vial charged with an HLA class II monomer protein, a peptide solution and a folding buffer were added in a calculated amount, and the mixture was allowed to stand at 37° C. overnight. HPLC (Waters 2695 Separation Module) was started, and a Seperdex 200 column was equilibrated with an equilibrating buffer. To all samples, 300 μL of the equilibrate buffer was added and well mixed, and a 100 μL portion of the mixture was used as a sample injection volume to calculate the retention time. Analysis time was 50 minutes. The criterion for the folding of an HLA class II monomer protein with a peptide is a shift of the retention time of not less than 0.1 minute as compared with a control (solvent only).

[2] = target: HLA class II monomer protein DRB1*1501 (Homo sapiens, UniProt P01903+P01911)
Method: as §1, §2, §3, §4, §5, §6

[3] = target: HLA class II monomer protein DRB1*1502 (Homo sapiens, UniProt P01903+P01911, V115G)
Sequence of HLA class II monomer protein DRB1*1502 (P01903 26-254, other chains not shown): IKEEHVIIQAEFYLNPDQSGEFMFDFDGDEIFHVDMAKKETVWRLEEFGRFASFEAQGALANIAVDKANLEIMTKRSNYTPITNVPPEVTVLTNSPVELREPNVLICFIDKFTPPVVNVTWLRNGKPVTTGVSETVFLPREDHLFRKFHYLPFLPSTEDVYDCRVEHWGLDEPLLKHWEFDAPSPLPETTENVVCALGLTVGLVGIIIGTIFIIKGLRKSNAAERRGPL
Method: as §1, §2, §3, §4, §5, §6

[4] = target: HLA class II monomer protein DRB4*0101 (Homo sapiens, UniProt P01903+P13762, G164S)
Method: as §1, §2, §3, §4, §5, §6

degree of shift of the retention time [1]: not less than 0.1 minute | degree of shift of the retention time [2]: not less than 0.1 minute | degree of shift of the retention time [3]: not less than 0.1 minute | degree of shift of the retention time [4]: not less than 0.1 minute
Sequence: KRYFKLSHLQMHSRKH [WT1-332]
